The source of these data is article PMC7765622, “The Cardioprotective PKA-Mediated Hsp20 Phosphorylation Modulates Protein Associations Regulating Cytoskeletal Dynamics” (International Journal of Molecular Sciences, 2020).

B1: GST-Hsp20 (amino acids 1-160), wild type, phosphorylated in vitro by PKA at Ser16 (natural protein, human, UniProt O14558 1-160, looked up)
chain: MEIPVPVQPSWLRRASAPLPGLSAPGRLFDQRFGEGLLEAELAALCPTTLAPYYLRAPSVALPVAQVPTDPGHFSVLLDVKHFSPEEIAVKVVGEHVEVHARHEERPDEHGFVAREFHRRYRLPPGVDPAAVTSALSPEGVLSIQAAPASAQAPPPAAAK
modifications: phosphoserine at 16 (PKA in vitro)
notes: Hsp20 (HspB6), amino acids 1-160, wild type; construct previously reported [16,53,57]; Same construct as m7, after PKA treatment; also called phosphorylated GST-Hsp20; GST-p-Hsp20; source: recombinant, purified on Glutathione Sepharose 4B; phosphorylated in vitro with PKA catalytic subunit (New England Biolabs), 30 °C, 1 h

Assay [1] addresses T1, MBP-14-3-3 (amino acids 1-247), full length 14-3-3 gamma (human, UniProt P61981 1-247).
T1 construct: 14-3-3 gamma, human, amino acids 1-247, cloned by RT-PCR on human muscle cDNA into pMALc2x; also called in vitro expressed 14-3-3; source: recombinant, expression as previously described [58]
T1 sequence (looked up): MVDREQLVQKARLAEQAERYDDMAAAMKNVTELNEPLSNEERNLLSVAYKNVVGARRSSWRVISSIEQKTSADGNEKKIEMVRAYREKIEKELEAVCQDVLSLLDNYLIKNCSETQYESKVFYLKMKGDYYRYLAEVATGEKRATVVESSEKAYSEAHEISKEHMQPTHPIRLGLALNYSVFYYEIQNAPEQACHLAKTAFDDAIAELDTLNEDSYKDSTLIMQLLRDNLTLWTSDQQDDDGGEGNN
Put plainly: pull-down; same samples as a4: eluted GST-Hsp20 proteins (PKA-treated or not) bound to MBP-14-3-3 on amylose resin, in the presence of myc-CFL2 HEK 293 lysate; blot with phospho-Hsp20 or GST antibody. The following applies: both partners purified.

Assay [2] addresses T2, GST-CFL2 (amino acids 1-166), non-phosphorylated (Homo sapiens (Human), UniProt Q9Y281).
T2 chain: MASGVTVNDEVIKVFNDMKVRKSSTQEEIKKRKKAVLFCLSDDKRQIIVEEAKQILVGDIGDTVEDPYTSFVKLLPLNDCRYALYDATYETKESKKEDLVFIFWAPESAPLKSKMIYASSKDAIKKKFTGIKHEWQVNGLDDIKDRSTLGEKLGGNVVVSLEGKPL
Put plainly: blot overlay.

Assay [3] addresses T3, GST-CFL2 (amino acids 1-55) (Homo sapiens (Human), UniProt Q9Y281).
T3 chain: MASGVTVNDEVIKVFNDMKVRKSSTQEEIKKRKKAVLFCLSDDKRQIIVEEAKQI
Put plainly: blot overlay.

The target of assay [4] is B1. Put plainly: far-Western, overlay or dot blot; purified GST fusion proteins separated by SDS-PAGE and transferred to nitrocellulose; membranes incubated with MBP-14-3-3 fusion protein (or MBP as control); detection with anti-MBP. The following applies: both partners purified.

Take B1: the binding result in assay [1] is listed as “binds”.

B2: GST-Hsp20-S16D (natural protein, human, UniProt O14558 1-160, looked up)
chain: MEIPVPVQPSWLRRADAPLPGLSAPGRLFDQRFGEGLLEAELAALCPTTLAPYYLRAPSVALPVAQVPTDPGHFSVLLDVKHFSPEEIAVKVVGEHVEVHARHEERPDEHGFVAREFHRRYRLPPGVDPAAVTSALSPEGVLSIQAAPASAQAPPPAAAK
notes: Hsp20 (HspB6), amino acids 1-160, made by PCR mutagenesis on the WT Hsp20 GST-tagged plasmid; Phosphomimetic at Ser16; also called GST-p-Hsp20-S16D (after PKA treatment); source: recombinant, purified (Glutathione Sepharose 4B), eluted; used untreated or PKA-treated
As to B2, the binding result in assay [1] is listed as “binds”.

B3: MBP-14-3-3 (amino acids 1-247), full length 14-3-3 gamma (protein)
chain: MVDREQLVQKARLAEQAERYDDMAAAMKNVTELNEPLSNEERNLLSVAYKNVVGARRSSWRVISSIEQKTSADGNEKKIEMVRAYREKIEKELEAVCQDVLSLLDNYLIKNCSETQYESKVFYLKMKGDYYRYLAEVATGEKRATVVESSEKAYSEAHEISKEHMQPTHPIRLGLALNYSVFYYEIQNAPEQACHLAKTAFDDAIAELDTLNEDSYKDSTLIMQLLRDNLTLWTSDQQDDDGGEGNN
B3: the binding result in assay [2] and in assay [3] was “binds” each time.

B4: MBP-14-3-3 (amino acids 115-247) (domain or fragment, human, UniProt P61981 115-247, looked up)
chain: TQYESKVFYLKMKGDYYRYLAEVATGEKRATVVESSEKAYSEAHEISKEHMQPTHPIRLGLALNYSVFYYEIQNAPEQACHLAKTAFDDAIAELDTLNEDSYKDSTLIMQLLRDNLTLWTSDQQDDDGGEGNN
notes: 14-3-3 gamma, human, amino acids 115-247, in pMALc2x; also called MBP-14-3-3 C-terminal deletion construct; C-terminal fragment of 14-3-3; source: recombinant, expression as previously described [58]
Take B4: in assay [4], the binding result is listed as “binds”.

B5: MBP-14-3-3 (amino acids 1-120) (protein)
chain: MVDREQLVQKARLAEQAERYDDMAAAMKNVTELNEPLSNEERNLLSVAYKNVVGARRSSWRVISSIEQKTSADGNEKKIEMVRAYREKIEKELEAVCQDVLSLLDNYLIKNCSETQYESK
On to B5, for which the binding result in assay [2] is given as “binds”.
